Data: publication PMC3598077 (EMBO Molecular Medicine, 2013)

Molecular target: T1, Recombinant His-RAD51 fusion protein (UniProt Q06609 1-339)
T1 sequence: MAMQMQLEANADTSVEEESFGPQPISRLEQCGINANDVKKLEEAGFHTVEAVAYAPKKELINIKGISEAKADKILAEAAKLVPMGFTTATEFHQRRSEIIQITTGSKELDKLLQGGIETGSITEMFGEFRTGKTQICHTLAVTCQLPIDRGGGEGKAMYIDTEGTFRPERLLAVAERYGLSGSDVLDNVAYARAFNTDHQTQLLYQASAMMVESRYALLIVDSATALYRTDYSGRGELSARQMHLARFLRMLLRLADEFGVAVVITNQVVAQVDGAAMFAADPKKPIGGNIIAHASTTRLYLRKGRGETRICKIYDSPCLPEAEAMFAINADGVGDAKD
Test: SPR

binding result: binds
Binder: FGGSFRTASNKEIKLSEHNIKKSKMFFKDIEEQYPT (domain or fragment) [Recombinant GST-BRC fusion protein (containing BRCA2-1005-1040, fused with GST at its N-terminal)]
